B1: Kinesin-like protein KIF24 (Homo sapiens), Q5T7B8 (parent)
chain: MASWLYECLCEAELAQYYSHFTALGLQKIDELAKITMKDYSKLGVHDMNDRKRLFQLIKIIKIMQEEDKAVSIPERHLQTSSLRIKSQELRSGPRRQLNFDSPADNKDRNASNDGFEMCSLSDFSANEQKSTYLKVLEHMLPDDSQYHTKTGILNATAGDSYVQTEISTSLFSPNYLSAILGDCDIPIIQRISHVSGYNYGIPHSCIRQNTSEKQNPWTEMEKIRVCVRKRPLGMREVRRGEINIITVEDKETLLVHEKKEAVDLTQYILQHVFYFDEVFGEACTNQDVYMKTTHPLIQHIFNGGNATCFAYGQTGAGKTYTMIGTHENPGLYALAAKDIFRQLEVSQPRKHLFVWISFYEIYCGQLYDLLNRRKRLFAREDSKHMVQIVGLQELQVDSVELLLEVILKGSKERSTGATGVNADSSRSHAVIQIQIKDSAKRTFGRISFIDLAGSERAADARDSDRQTKMEGAEINQSLLALKECIRALDQEHTHTPFRQSKLTQVLKDSFIGNAKTCMIANISPSHVATEHTLNTLRYADRVKELKKGIKCCTSVTSRNRTSGNSSPKRIQSSPGALSEDKCSPKKVKLGFQQSLTVAAPGSTRGKVHPLTSHPPNIPFTSAPKVSGKRGGSRGSPSQEWVIHASPVKGTVRSGHVAKKKPEESAPLCSEKNRMGNKTVLGWESRASGPGEGLVRGKLSTKCKKVQTVQPVQKQLVSRVELSFGNAHHRAEYSQDSQRGTPARPASEAWTNIPPHQKEREEHLRFYHQQFQQPPLLQQKLKYQPLKRSLRQYRPPEGQLTNETPPLFHSYSENHDGAQVEELDDSDFSEDSFSHISSQRATKQRNTLENSEDSFFLHQTWGQGPEKQVAERQQSLFSSPRTGDKKDLTKSWVDSRDPINHRRAALDHSCSPSKGPVDWSRENSTSSGPSPRDSLAEKPYCSQVDFIYRQERGGGSSFDLRKDASQSEVSGENEGNLPSPEEDGFTISLSHVAVPGSPDQRDTVTTPLREVSADGPIQVTSTVKNGHAVPGEDPRGQLGTHAEYASGLMSPLTMSLLENPDNEGSPPSEQLVQDGATHSLVAESTGGPVVSHTVPSGDQEAALPVSSATRHLWLSSSPPDNKPGGDLPALSPSPIRQHPADKLPSREADLGEACQSRETVLFSHEHMGSEQYDADAEETGLDGSWGFPGKPFTTIHMGVPHSGPTLTPRTGSSDVADQLWAQERKHPTRLGWQEFGLSTDPIKLPCNSENVTWLKPRPISRCLARPSSPLVPSCSPKTAGTLRQPTLEQAQQVVIRAHQEQLDEMAELGFKEETLMSQLASNDFEDFVTQLDEIMVLKSKCIQSLRSQLQLYLTCHGPTAAPEGTVPS
partner: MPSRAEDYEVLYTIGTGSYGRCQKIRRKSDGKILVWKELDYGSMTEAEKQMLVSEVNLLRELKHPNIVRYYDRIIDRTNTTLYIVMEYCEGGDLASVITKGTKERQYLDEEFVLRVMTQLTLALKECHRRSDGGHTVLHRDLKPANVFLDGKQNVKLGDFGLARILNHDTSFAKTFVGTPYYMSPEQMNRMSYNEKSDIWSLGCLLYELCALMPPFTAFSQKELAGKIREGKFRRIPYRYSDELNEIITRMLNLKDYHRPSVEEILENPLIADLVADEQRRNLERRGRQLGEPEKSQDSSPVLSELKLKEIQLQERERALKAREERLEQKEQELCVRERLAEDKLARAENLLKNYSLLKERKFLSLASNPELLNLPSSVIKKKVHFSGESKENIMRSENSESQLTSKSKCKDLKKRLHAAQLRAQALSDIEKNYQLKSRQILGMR

Variants of: B1
Conditions: with nek2_human NEK2, P51955

Row | effect of a mutation on the interaction | Variant
1 | decreasing interaction | T621A;S622A

— IntAct's records for PubMed 26290419
